These results are taken from publication PMC5382266 (Nature Communications, 2017).

Sequences and labels used below:
B6: full-length FLAG-tagged human TSLPR (receptor, UniProt Q9HC73-1 23-371, looked up)
chain: QGGAAEGVQIQIIYFNLETVQVTWNASKYSRTNLTFHYRFNGDEAYDQCTNYLLQEGHTSGCLLDAEQRDDILYFSIRNGTHPVFTASRWMVYYLKPSSPKHVRFSWHQDAVTVTCSDLSYGDLLYEVQYRSPFDTEWQSKQENTCNVTIEGLDAEKCYSFWVRVKAMEDVYGPDTYPSDWSEVTCWQRGEIRDACAETPTPPKPKLSKFILISSLAILLMVSLLLLSLWKLWRVKKFLIPSVPDPKSIFPGLFEIHQGNFQEWITDTQNVAHLHKMAGAEQESGPEEPLVVQLAKTEAESPRMLDPQTEEKEASGGSLQLPHQPLQGGDVVTIGGFTFVMNDRSYVAL

Assay [1] concerns the target wild type TSLP (TSLP^R127A/R130S) (human, UniProt Q969D9-1 29-159, R127A | R130S). Put plainly: cell-based or functional assay.
Assay [2] concerns the target T1, preformed TSLP:TSLPR binary complex (human, UniProt Q969D9-1 29-159; Q9HC73-1 23-221, R127A | R130S, biotin, C-terminal (in vivo biotinylation)).
T1 construct: signal peptide in the construct; as the chain of m1; extracellular fragment of human TSLPR, NP_071431.2, residues 1-221; as the chain of m2; 320 nM TSLPR was kept in the kinetics buffer and in all IL-7Rα samples; also called TSLP:TSLPR complex; not shown: Avi tag (from the vector pHL-AVITAG), C-terminal, kept
Nature of the assay: BLI; TSLP-loaded biosensors incubated with 320 nM TSLPR, which was also in the assay buffer and all IL-7Rα samples; PBS with 0.01% BSA and 0.002% Tween 20, 25 °C; 1:1 model. The note with it: both partners purified. A general note: Biolayer interferometry detects binding as a change in optical thickness at a sensor tip.

The target in assay [3] is T2, full-length HA-tagged human IL-7Rα (human, UniProt P16871-1 21-459).
T2 sequence (looked up): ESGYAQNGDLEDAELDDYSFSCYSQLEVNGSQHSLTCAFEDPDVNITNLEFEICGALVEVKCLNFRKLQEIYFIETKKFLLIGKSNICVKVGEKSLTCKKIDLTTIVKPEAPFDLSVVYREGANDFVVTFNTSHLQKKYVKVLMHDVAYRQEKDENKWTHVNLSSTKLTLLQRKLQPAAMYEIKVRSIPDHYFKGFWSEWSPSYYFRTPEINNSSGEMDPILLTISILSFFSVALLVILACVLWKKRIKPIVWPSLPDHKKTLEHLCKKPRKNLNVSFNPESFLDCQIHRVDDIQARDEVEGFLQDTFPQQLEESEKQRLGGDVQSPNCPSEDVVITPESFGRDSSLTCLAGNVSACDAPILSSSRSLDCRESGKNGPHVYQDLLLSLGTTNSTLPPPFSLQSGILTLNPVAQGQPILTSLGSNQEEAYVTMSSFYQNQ

Assay [4] concerns the target T2, full-length HA-tagged human IL-7Rα. Nature of the assay: cell-based or functional assay.
The target of assay [5] is B6. Put plainly: cell-based or functional assay.
Assay [6] addresses T3, biotinylated TSLP^R127A/R130S (human, UniProt Q969D9-1 29-159, R127A | R130S, biotin, C-terminal (in vivo biotinylation)).
T3 construct: signal peptide in the construct; glycosylated, mammalian-derived; also called thymic stromal lymphopoietin; source: HEK293T, co-transfected with pDisplay-BirA-ER, purified from conditioned medium (IMAC, SEC); not shown: Avi tag (from the vector pHL-AVITAG), C-terminal, kept
Put plainly: BLI; biotinylated TSLP^R127A/R130S on streptavidin biosensors, analyte in solution; PBS with 0.01% BSA and 0.002% Tween 20, 25 °C, Octet RED96; 1:1 model. The note with it: both partners purified.

B1: TSLP-trap2 (other, human)
chain: ESGYAQNGDLEDAELDDYSFSCYSQLEVNGSQHSLTCAFEDPDVNITNLEFEICGALVEVKCLNFRKLQEIYFIETKKFLLIGKSNICVKVGEKSLTCKKIDLTTIVKPEAPFDLSVVYREGANDFVVTFNTSHLQKKYVKVLMHDVAYRQEKDENKWTHVNLSSTKLTLLQRKLQPAAMYEIKVRSIPDHYFKGFWSEWSPSYYFRTPEINNSSGEMDGGSGGSGGSGGSGGSGGSGGSGGSGGSGGSGGSGGSGGSGGSGGSGGSGGSGGSGGSGGSQGGAAEGVQIQIIYFNLETVQVTWNASKYSRTNLTFHYRFNGDEAYDQCTNYLLQEGHTSGCLLDAEQRDDILYFSIRNGTHPVFTASRWMVYYLKPSSPKHVRFSWHQDAVTVTCSDLSYGDLLYEVQYRSPFDTEWQSKQENTCNVTIEGLDAEKCYSFWVRVKAMEDVYGPDTYPSDWSEVTCWQRGEIRDACAETPTPPKPKLSK
Regarding B1, in assay [1], the “IC50 of inhibition of STAT5 activity induced by 10 pM TSLP in HEK293T cells expressing TSLPR and IL-7Rα” value turned out to be 44 pM.

B2: soluble IL-7Rα ectodomain (domain or fragment, human, UniProt P16871-1 21-239, looked up)
chain: ESGYAQNGDLEDAELDDYSFSCYSQLEVNGSQHSLTCAFEDPDVNITNLEFEICGALVEVKCLNFRKLQEIYFIETKKFLLIGKSNICVKVGEKSLTCKKIDLTTIVKPEAPFDLSVVYREGANDFVVTFNTSHLQKKYVKVLMHDVAYRQEKDENKWTHVNLSSTKLTLLQRKLQPAAMYEIKVRSIPDHYFKGFWSEWSPSYYFRTPEINNSSGEMD
notes: signal peptide in the construct; extracellular fragment of human IL-7Rα, NP_002176.2, residues 1-239; also called interleukin 7 receptor α-chain
One may read the Kd as the constant that tells how readily two partners part at equilibrium. One may read the koff as the rate constant with which the complex falls apart. Read a high koff as a short-lived complex. For orientation: kon means a measure of how fast the partners come together. Regarding B2, in assay [2], the dissociation constant (Kd) was 29000 pM, the dissociation rate constant (koff) was determined as 0.0036 s⁻¹ and the kon was found to be 123000 M⁻¹ s⁻¹.

B3: TSLPR-Asp157Ala/Glu159Ala (receptor)
chain: QGGAAEGVQIQIIYFNLETVQVTWNASKYSRTNLTFHYRFNGDEAYDQCTNYLLQEGHTSGCLLDAEQRDDILYFSIRNGTHPVFTASRWMVYYLKPSSPKHVRFSWHQDAVTVTCSDLSYGDLLYEVQYRSPFATAWQSKQENTCNVTIEGLDAEKCYSFWVRVKAMEDVYGPDTYPSDWSEVTCWQRGEIRDACAETPTPPKPKLSKFILISSLAILLMVSLLLLSLWKLWRVKKFLIPSVPDPKSIFPGLFEIHQGNFQEWITDTQNVAHLHKMAGAEQESGPEEPLVVQLAKTEAESPRMLDPQTEEKEASGGSLQLPHQPLQGGDVVTIGGFTFVMNDRSYVAL
Turning to B3, the EC50 of TSLP-induced STAT5 activity in cells expressing mutant TSLPR and IL-7Rα in assay [3] worked out at 85 pM.

B4: TSLPR-Asp176Ala/Glu178Ala/Lys179Ala (receptor)
chain: QGGAAEGVQIQIIYFNLETVQVTWNASKYSRTNLTFHYRFNGDEAYDQCTNYLLQEGHTSGCLLDAEQRDDILYFSIRNGTHPVFTASRWMVYYLKPSSPKHVRFSWHQDAVTVTCSDLSYGDLLYEVQYRSPFDTEWQSKQENTCNVTIEGLAAAACYSFWVRVKAMEDVYGPDTYPSDWSEVTCWQRGEIRDACAETPTPPKPKLSKFILISSLAILLMVSLLLLSLWKLWRVKKFLIPSVPDPKSIFPGLFEIHQGNFQEWITDTQNVAHLHKMAGAEQESGPEEPLVVQLAKTEAESPRMLDPQTEEKEASGGSLQLPHQPLQGGDVVTIGGFTFVMNDRSYVAL
With B4, in assay [3], the EC50 of TSLP-induced STAT5 activity in cells expressing mutant TSLPR and IL-7Rα was determined as 49 pM.

B5: TSLPR-Phe156Ala/Asp157Ala/Glu159Ala (receptor)
chain: QGGAAEGVQIQIIYFNLETVQVTWNASKYSRTNLTFHYRFNGDEAYDQCTNYLLQEGHTSGCLLDAEQRDDILYFSIRNGTHPVFTASRWMVYYLKPSSPKHVRFSWHQDAVTVTCSDLSYGDLLYEVQYRSPAATAWQSKQENTCNVTIEGLDAEKCYSFWVRVKAMEDVYGPDTYPSDWSEVTCWQRGEIRDACAETPTPPKPKLSKFILISSLAILLMVSLLLLSLWKLWRVKKFLIPSVPDPKSIFPGLFEIHQGNFQEWITDTQNVAHLHKMAGAEQESGPEEPLVVQLAKTEAESPRMLDPQTEEKEASGGSLQLPHQPLQGGDVVTIGGFTFVMNDRSYVAL
Consider B5, for which the EC50 of TSLP-induced STAT5 activity in cells expressing mutant TSLPR and IL-7Rα in assay [3] is 400 pM.

With B6, the “EC50 of TSLP-induced STAT5 activity in cells expressing WT TSLPR and IL-7Rα (control of the site III mutants)” value in assay [4] was determined as 11 pM.

B7: TSLP-Arg149Ser (ligand, human, UniProt Q969D9-1 29-159, looked up)
chain: YDFTNCDFEKIKAAYLSTISKDLITYMSGTKSTEFNNTVSCSNRPHCLTEIQSLTFNPTAGCASLAKEMFAMKTKAALAIWCPGYSETQINATQAMKKARKSKVTTNKCLEQVSQLQGLWSRFNRPLLKQQ
B7: the “EC50 of STAT5 activity (luciferase reporter) induced by TSLP in HEK293T cells expressing WT TSLPR and IL-7Rα” value (“EC50 of STAT5 activity” for short) in assay [5] is 2.8 pM.

B8: TSLP-Arg150Ser (ligand, human, UniProt Q969D9-1 29-159, looked up)
chain: YDFTNCDFEKIKAAYLSTISKDLITYMSGTKSTEFNNTVSCSNRPHCLTEIQSLTFNPTAGCASLAKEMFAMKTKAALAIWCPGYSETQINATQAMKKARKSKVTTNKCLEQVSQLQGLWRSFNRPLLKQQ
On to B8, for which the “EC50 of STAT5 activity” value in assay [5] was determined as 9.5 pM.

B9: TSLP-Arg153Ser (ligand, human, UniProt Q969D9-1 29-159, looked up)
chain: YDFTNCDFEKIKAAYLSTISKDLITYMSGTKSTEFNNTVSCSNRPHCLTEIQSLTFNPTAGCASLAKEMFAMKTKAALAIWCPGYSETQINATQAMKKARKSKVTTNKCLEQVSQLQGLWRRFNSPLLKQQ
Consider B9, for which, in assay [5], the “EC50 of STAT5 activity” value came to 19 pM.

B10: TSLP-Arg149Ser/Arg150Ser (ligand, human, UniProt Q969D9-1 29-159, looked up)
chain: YDFTNCDFEKIKAAYLSTISKDLITYMSGTKSTEFNNTVSCSNRPHCLTEIQSLTFNPTAGCASLAKEMFAMKTKAALAIWCPGYSETQINATQAMKKARKSKVTTNKCLEQVSQLQGLWSSFNRPLLKQQ
In the case of B10, the “EC50 of STAT5 activity” value in assay [5] was 100 pM.

B11: TSLP-trap1 (other, human)
chain: QGGAAEGVQIQIIYFNLETVQVTWNASKYSRTNLTFHYRFNGDEAYDQCTNYLLQEGHTSGCLLDAEQRDDILYFSIRNGTHPVFTASRWMVYYLKPSSPKHVRFSWHQDAVTVTCSDLSYGDLLYEVQYRSPFDTEWQSKQENTCNVTIEGLDAEKCYSFWVRVKAMEDVYGPDTYPSDWSEVTCWQRGEIRDACAETPTPPKPKLSKGGSGGSGGSGGSGGSGGSGGSGGSGGSGGSGGSGGSGGSGGSGGSGGSGGSGGSGGSGGSESGYAQNGDLEDAELDDYSFSCYSQLEVNGSQHSLTCAFEDPDVNITNLEFEICGALVEVKCLNFRKLQEIYFIETKKFLLIGKSNICVKVGEKSLTCKKIDLTTIVKPEAPFDLSVVYREGANDFVVTFNTSHLQKKYVKVLMHDVAYRQEKDENKWTHVNLSSTKLTLLQRKLQPAAMYEIKVRSIPDHYFKGFWSEWSPSYYFRTPEINNSSGEMD
notes: signal peptide in the construct; extracellular domain of human TSLPR, NP_071431.2, residues 1-231 (native secretion signal of TSLPR used); flexible (Gly-Gly-Ser)20 linker, written out from the printed formula; extracellular part of human IL-7Rα, NP_002176.2, residues 21-239; also called Human TSLP-trap1; hTSLPtrap1
Take B11: the “IC50 of inhibition of STAT5 activity induced by 10 pM TSLP in HEK293T cells expressing TSLPR and IL-7Rα” value in assay [1] turned out to be 67 pM. Besides, in assay [6], the equilibrium dissociation constant (Kd) came to 120 pM and the koff is 2e-05 s⁻¹.

B12: soluble TSLPR ectodomain (domain or fragment, human, UniProt Q9HC73-1 23-221, looked up)
chain: QGGAAEGVQIQIIYFNLETVQVTWNASKYSRTNLTFHYRFNGDEAYDQCTNYLLQEGHTSGCLLDAEQRDDILYFSIRNGTHPVFTASRWMVYYLKPSSPKHVRFSWHQDAVTVTCSDLSYGDLLYEVQYRSPFDTEWQSKQENTCNVTIEGLDAEKCYSFWVRVKAMEDVYGPDTYPSDWSEVTCWQRGEIRDACAET
Regarding B12, the “IC50 of inhibition of STAT5 activity induced by 10 pM TSLP by an equimolar mixture of the soluble TSLPR and IL-7Rα ectodomains” value in assay [1] came to 49 nM.
